Substrate in data set [1]: Nc1ncnc2c1ncn2[C@H]1C[C@H](O)[C@@H](COP(=O)(O)OP(=O)(O)OP(=O)(O)O)O1
In words: Spectrophotometric assay coupled to xanthine oxidase, dATP + C ⇄ dCTP + A. It counts as biochemical, Lactobacillus leichmannii. As to conditions: other: PDTT4, 1 mM cytosine, 50 mM MES pH6.0, 37° C., pH 6.0. On the procedure:
Further, the cinetic parameters of these mutant enzymes were analysed, using a specific spectrophotometric assay. Briefly, the assay consists in measuring the formation of the final product (2,8 dihydroxyadenine) of the reaction:
Briefly, the assay was performed using the coupling of two enzymes: the variant (PDTT2, PDTT4, PDTT5, PDTT6, or PDTT7) to be tested and xanthine oxidase (obtained from Roche). The reaction mixture contained varying concentrations of dATP, 1 mM cytosine in a 50 mM MES buffer pH6.0 at 37° C. The reaction was initiated by adding 30 units of the purified variant to be tested and xanthine oxidase (Roche). The released adenine was then oxidized in 2,8-dihydroxyadenine which absorbs at 301 nm. The formation (i.e. concentration) of 2,8 dihydroxyadenine was measured by spectrophotometry.

The nature of data set [2]: Catalytic activity of PDTT2 to PDTT7, dATP formed (HPLC). As to conditions: dCTP + A ⇄ dATP + C; 2 mM dCTP, 1 mM Adenine, 37° C., MES 50 mM pH6.0. It counts as biochemical. On the procedure: In specific cases, an alternative protocol was used to perform the enzyme assay. In this second protocol, the dNxP (dNMP, or dNDP or dNTP) concentration was of only 2 mM, instead of 3 mM. All of the other conditions were identical to those of the first protocol.
The catalytic activity of the mutant enzymes PDTT2, PDTT3, PDTT3b, PDTT4, PDTT5, PDTT6, PDTT7 has been compared. Briefly, a sufficient amount of enzyme mutant necessary to obtain a linear reaction over a period of one hour at 37° C. has been mixed in 2 mM dCTP and 1 mM Adenine in a final volume of 50 μL of MES buffer 50 mM pH6.0. Assays were incubated for 60 min at 37° C. The products of the reactions were analyzed each 7 min by Rapid resolution high performance liquid chromatography using a reverse-phase column (ZORBAX Eclipse XDB-C18 2.1*50 mm […]) with a flow rate of 0.25 ml/min and a linear gradient of 1-12% CH3CN (2-25% CH3CN or 1-90% CH3CN) in 20 mM triethylammonium acetate, pH 7.5, buffer for 7 min.

Data set [3] can be described thus: Standard enzyme assay (HPLC): specific activities of PDT variants with natural purines and pyrimidines. It counts as biochemical. As to conditions: donor 3 mM, acceptor 1 mM. The method, then: (§1) The standard assay (“first protocol for enzyme assay”) for the different NDTs consisted of 5-15 μg of NDT in 50 mM MES buffer pH 6.0, dNxP (dNMP, or dNDP or dNTP) 3 mM and a base 1 mM in a total volume of 50 μL. Assays were incubated for 60 min at 37° C. The products of the reactions were analyzed each 7 min by Rapid resolution high performance liquid chromatography using a reverse-phase column (ZORBAX Eclipse XDB-C18 2.1*50 mm 1.8 μM) with a flow rate of 0.25 ml/min and a linear gradient of 1-12% CH3CN (2-25% CH3CN or 1-90% CH3CN) in 20 mM triethylammonium acetate, pH 7.5, buffer for 7 min. The low resolution mass spectra of the newly synthesized deoxyribonucleotides were obtained on an Agilent 1200 series LC/MS 6120 quadrupole system using an atmospheric electrospray ionization system.
Unless specifically mentioned, the results presented hereafter have been obtained by using the first protocol for performing the enzyme assay.

Data set [4] can be described thus: In vitro synthesis of deoxynucleotide analogues: specific activities. In kind it is biochemical. On the procedure: as §1
The donor concentration was 3 mM and the acceptor 1 mM except for dCTP 2 mM 5-BrU 1 mM and dAMP 2 mM 5-FU 1 mM. Activities are expressed in nanomoles of deoxynucleotides synthesized per min per mg of protein.

Six molecules from patent US9523084B2, “Phosphodeoxyribosyl transferase mutant enzymes and uses thereof” (Centre National De La Recherche Scientifique, priority 2012, dated 2016) can be followed below.

B1: Lactobacillus leichmannii nucleoside deoxyribosyltransferase (NDT, SEQ ID NO:1) variant PDTT4, R13 Q91 G92 S93 S123 K157 (F13R/E91Q/D92G/V93S/N123S/Y157K), SEQ … (protein)
chain: MPKKTIYFGAGWRTDRQNKAYKEAMEALKENPTIDLENSYVPLDNQYKGIRVDEHPEYLHDKVWATATYNNDLNGIKTNDIMLGVYIPDEQGSGLGMELGYALSQGKYVLLVIPDEDYGKPISLMSWGVSDNVIKMSQLKDFNFNKPRFDFYEGAVK
notes: xanthine oxidase is coupling enzyme only
Consider B1, for which, in data set [1], the Km was determined as 2.3 mM, the kcat turned out to be 8.8 s⁻¹ and the kcat/Km stood at 3800 M⁻¹ s⁻¹.

B2: PDTT5: PDTT3 mutant with Arginine at position 157, SEQ ID NO:41 (protein)
chain: MPKKTIYFGAGWRTDRQNKAYKEAMEALKENPTIDLENSYVPLDNQYKGIRVDEHPEYLHDKVWATATYNNDLNGIKTNDIMLGVYIPDEQGPGLGMELGYALSQGKYVLLVIPDEDYGKPISLMSWGVSDNVIKMSQLKDFNFNKPRFDFYEGAVR
modifications: amino acid sequence of PDTT5 (G92/S123/R13/P93/R157/Q91)
With B2, the “Catalytic activity (nmol of dATP formed/min/mg of enzyme protein)” value in data set [2] was 27 nmol of dATP formed/min/mg of enzyme protein.

B3: PDTT2: NDT mutant R13 Q91 G92 T93 S123, SEQ ID NO:10 (protein)
chain: MPKKTIYFGAGWRTDRQNKAYKEAMEALKENPTIDLENSYVPLDNQYKGIRVDEHPEYLHDKVWATATYNNDLNGIKTNDIMLGVYIPDEQGTGLGMELGYALSQGKYVLLVIPDEDYGKPISLMSWGVSDNVIKMSQLKDFNFNKPRFDFYEGAVY
modifications: PDTT2 enzyme mutant
Regarding B3, the Specific activity in data set [3] (dADP + C ⇄ dCDP + A) was 8 nanomoles of deoxynucleotides synthesized per min per mg of protein; in data set [3] (dADP + Hx ⇄ dIDP + A), <0.1 nanomoles of deoxynucleotides synthesized per min per mg of protein; in data set [3] (dAMP + C ⇄ dCMP + A) it was 31 nanomoles of deoxynucleotides synthesized per min per mg of protein; in data set [3] (dAMP + Hx ⇄ dIMP + A), <0.1 nanomoles of deoxynucleotides synthesized per min per mg of protein; in data set [3] (dATP + C ⇄ dCTP + A), 15 nanomoles of deoxynucleotides synthesized per min per mg of protein; in data set [3] (dATP + Hx ⇄ dITP + A) it was <0.1 nanomoles of deoxynucleotides synthesized per min per mg of protein. Besides, the Specific activity in data set [3] (dCDP + A ⇄ dADP + C) is on record as 66 nanomoles of deoxynucleotides synthesized per min per mg of protein; in data set [3] (dCDP + U ⇄ dUDP + C (U used as acceptor base instead of T)) it was 8 nanomoles of deoxynucleotides synthesized per min per mg of protein; in data set [3] (dCMP + A ⇄ dAMP + C), 286 nanomoles of deoxynucleotides synthesized per min per mg of protein; in data set [3] (dCMP + T ⇄ dTMP + C), 1.1 nanomoles of deoxynucleotides synthesized per min per mg of protein; in data set [3] (dCTP + A ⇄ dATP + C), 51 nanomoles of deoxynucleotides synthesized per min per mg of protein; in data set [3] (dCTP + T ⇄ dTTP + C), 1.4 nanomoles of deoxynucleotides synthesized per min per mg of protein. In addition, the Specific activity in data set [3] (dGDP + A ⇄ dADP + G) is given as 33 nanomoles of deoxynucleotides synthesized per min per mg of protein; in data set [3] (dGMP + A ⇄ dAMP + G), 50 nanomoles of deoxynucleotides synthesized per min per mg of protein; in data set [3] (dGTP + A ⇄ dATP + G) it was 36 nanomoles of deoxynucleotides synthesized per min per mg of protein; in data set [4] (dAMP + 5-FU → A + 5-F-dUMP, dAMP 2 mM 5-FU 1 mM), 48.4 nanomoles of deoxynucleotides synthesized per min per mg of protein; in data set [4] (dCMP + 2,6-D → C + 2,6-DMP, donor 3 mM, acceptor 1 mM), 95.8 nanomoles of deoxynucleotides synthesized per min per mg of protein; in data set [4] (dCMP + 2,6-chloropurine → C + 2,6-dichloropurine 2′-deoxyribose 5′-monophosphate, donor 3 mM, acceptor 1 mM), 37 nanomoles of deoxynucleotides synthesized per min per mg of protein. Moreover, the Specific activity in data set [4] (dCMP + 5-BrU → C + 5-Br-dUMP, donor 3 mM, acceptor 1 mM) is given as 10.7 nanomoles of deoxynucleotides synthesized per min per mg of protein; in data set [4] (dCMP + 6-chloropurine → C + 6-chloropurine 2′-deoxyribose 5′-monophosphate, donor 3 mM, acceptor 1 mM) it was 75 nanomoles of deoxynucleotides synthesized per min per mg of protein; in data set [4] (dCTP + 2,6-D → C + 2,6-DTP, donor 3 mM, acceptor 1 mM) it was 17 nanomoles of deoxynucleotides synthesized per min per mg of protein; in data set [4] (dCTP + 2,6-chloropurine → C + 2,6-dichloropurine 2′-deoxyribose 5′-triphosphate, donor 3 mM, acceptor 1 mM), 14 nanomoles of deoxynucleotides synthesized per min per mg of protein; in data set [4] (dCTP + 5-BrU → C +5-Br-dUTP, dCTP 2 mM 5-BrU 1 mM), 12 nanomoles of deoxynucleotides synthesized per min per mg of protein; in data set [4] (dCTP + 5-FU → C + 5-F-dUTP, donor 3 mM, acceptor 1 mM) it was 39.4 nanomoles of deoxynucleotides synthesized per min per mg of protein. Further, the Specific activity in data set [4] (dCTP + 6-chloropurine → C + 6-chloropurine 2′-deoxyribose 5′-triphosphate, donor 3 mM, acceptor 1 mM) is reported as 15 nanomoles of deoxynucleotides synthesized per min per mg of protein; in data set [4] (dCTPαS + A → C + dATPαS, donor 3 mM, acceptor 1 mM) it was 54 nanomoles of deoxynucleotides synthesized per min per mg of protein. Moreover, the “Catalytic activity (nmol of dATP formed/min/mg of enzyme protein)” value in data set [2] is given as 9.6 nmol of dATP formed/min/mg of enzyme protein.

B4: PDTT3b: PDTT2 mutant with Glycine (G) at position 93 and Lysine at position 157, SEQ ID NO:39 (protein)
chain: MPKKTIYFGAGWRTDRQNKAYKEAMEALKENPTIDLENSYVPLDNQYKGIRVDEHPEYLHDKVWATATYNNDLNGIKTNDIMLGVYIPDEQGGGLGMELGYALSQGKYVLLVIPDEDYGKPISLMSWGVSDNVIKMSQLKDFNFNKPRFDFYEGAVK
modifications: amino acid sequence of PDTT3b (G92/S123/R13/G93/K157/Q91)
With B4, in data set [2], the “Catalytic activity (nmol of dATP formed/min/mg of enzyme protein)” value was 6.5 nmol of dATP formed/min/mg of enzyme protein.

B5: PDTT4: PDTT2 mutant with Serine at position 93 and Lysine at position 157, SEQ ID NO:40 (protein)
chain: MPKKTIYFGAGWRTDRQNKAYKEAMEALKENPTIDLENSYVPLDNQYKGIRVDEHPEYLHDKVWATATYNNDLNGIKTNDIMLGVYIPDEQGSGLGMELGYALSQGKYVLLVIPDEDYGKPISLMSWGVSDNVIKMSQLKDFNFNKPRFDFYEGAVK
modifications: amino acid sequence of PDTT4 (G92/S123/R13/S93/K157/Q91)
On to B5, for which the “Catalytic activity (nmol of dATP formed/min/mg of enzyme protein)” value in data set [2] is 10.4 nmol of dATP formed/min/mg of enzyme protein.

B6: PDTT3: PDTT2 mutant with Proline at position 93 and Lysine at position 157, SEQ ID NO:38 (protein)
chain: MPKKTIYFGAGWRTDRQNKAYKEAMEALKENPTIDLENSYVPLDNQYKGIRVDEHPEYLHDKVWATATYNNDLNGIKTNDIMLGVYIPDEQGPGLGMELGYALSQGKYVLLVIPDEDYGKPISLMSWGVSDNVIKMSQLKDFNFNKPRFDFYEGAVK
modifications: amino acid sequence of PDTT3 (G92/S123/R13/P93/K157/Q91)
For the molecule B6, the “Catalytic activity (nmol of dATP formed/min/mg of enzyme protein)” value in data set [2] is 2.7 nmol of dATP formed/min/mg of enzyme protein.

What is called Km is the substrate concentration at which the rate is half of its maximum. As a reminder, the kcat is the maximal rate divided by the concentration of active sites. As a reminder, the kcat/Km is the turnover number divided by the Michaelis constant.
